Source: publication PMC10397247
Blank lines part the entries; values can stand above or below the binder they belong to.

Legend:
4H717-AA = biological target: T1, 4H717-AA; assay: two-hybrid library CCmax; conditions: mean of both orientations;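 further: natural log of median RNA to DNA barcode read ratio; higher means stronger binding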
T1 chain: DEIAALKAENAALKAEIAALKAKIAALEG

4H797-AA = biological target: T2, 4H797-AA; assay: two-hybrid library CCmax; conditions: mean of both orientations;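 further: natural log of median RNA to DNA barcode read ratio; higher means stronger binding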
T2 chain: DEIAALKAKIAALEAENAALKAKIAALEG

4H4001-AA = biological target: T3, 4H4001-AA; assay: two-hybrid library CCmax;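 further: natural log of median RNA to DNA barcode read ratio; higher means stronger binding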
T3 chain: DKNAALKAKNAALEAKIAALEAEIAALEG

4H883-AA = biological target: T4, 4H883-AA; assay: two-hybrid library CCmax; conditions: mean of both orientations;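 further: natural log of median RNA to DNA barcode read ratio; higher means stronger binding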
T4 chain: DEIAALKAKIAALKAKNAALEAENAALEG

4H918-AA = biological target: T5, 4H918-AA; assay: two-hybrid library CCmax; conditions: mean of both orientations
T5 chain: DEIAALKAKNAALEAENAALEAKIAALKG

4H568-AA = biological target: T6, 4H568-AA; assay: two-hybrid library CCmax; conditions: mean of both orientations
T6 chain: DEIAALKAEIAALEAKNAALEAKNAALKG

4H953-AA = biological target: T7, 4H953-AA; assay: two-hybrid library CCmax; conditions: mean of both orientations
T7 chain: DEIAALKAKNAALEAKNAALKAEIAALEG

4H967-AA = biological target: T8, 4H967-AA; assay: two-hybrid library CCmax; conditions: mean of both orientations
T8 chain: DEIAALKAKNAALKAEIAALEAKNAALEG

4H687-AA = biological target: T9, 4H687-AA; assay: two-hybrid library CCmax; conditions: mean of both orientations
T9 chain: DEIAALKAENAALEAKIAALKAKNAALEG

P6bHq = biological target: T10, P6bHq; assay: two-hybrid library CCNG1
T10 chain: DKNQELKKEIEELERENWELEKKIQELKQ

P8bHq = biological target: T11, P8bHq; assay: two-hybrid library CCNG1
T11 chain: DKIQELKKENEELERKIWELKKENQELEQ

P7bHq = biological target: T12, P7bHq; assay: two-hybrid library CCNG1
T12 chain: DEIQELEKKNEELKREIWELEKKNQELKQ

P9bHq = biological target: T13, P9bHq; assay: two-hybrid library CCNG1
T13 chain: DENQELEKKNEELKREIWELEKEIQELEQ

4H2553-AA = biological target: T14, 4H2553-AA; assay: two-hybrid library CCmax; conditions: mean of both orientations
T14 chain: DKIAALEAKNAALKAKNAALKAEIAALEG

4H3865-AA = biological target: T15, 4H3865-AA; assay: two-hybrid library CCmax; conditions: mean of both orientations
T15 chain: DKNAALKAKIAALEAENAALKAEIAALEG

4H2648-AA = biological target: T16, 4H2648-AA; assay: two-hybrid library CCmax; conditions: mean of both orientations
T16 chain: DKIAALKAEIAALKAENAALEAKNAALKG

4H3056-AA = biological target: T17, 4H3056-AA; assay: two-hybrid library CCmax; conditions: mean of both orientations
T17 chain: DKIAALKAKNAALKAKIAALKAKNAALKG

4H3133-AA = biological target: T18, 4H3133-AA; assay: two-hybrid library CCmax; conditions: mean of both orientations
T18 chain: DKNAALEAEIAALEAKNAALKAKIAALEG

4H3413-AA = biological target: T19, 4H3413-AA; assay: two-hybrid library CCmax; conditions: mean of both orientations
T19 chain: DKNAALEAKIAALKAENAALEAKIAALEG

4H384-AA = biological target: T20, 4H384-AA; assay: two-hybrid library CCmax; conditions: mean of both orientations
T20 chain: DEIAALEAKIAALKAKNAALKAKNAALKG

4H1874-AA = biological target: T21, 4H1874-AA; assay: two-hybrid library CCmax; conditions: mean of both orientations
T21 chain: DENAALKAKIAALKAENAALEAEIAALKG

4H3718-AA = biological target: T22, 4H3718-AA; assay: two-hybrid library CCmax; conditions: mean of both orientations
T22 chain: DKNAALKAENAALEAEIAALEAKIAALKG

4H3378-AA = biological target: T23, 4H3378-AA; assay: two-hybrid library CCmax; conditions: mean of both orientations
T23 chain: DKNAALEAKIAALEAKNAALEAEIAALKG

4H982-AA = biological target: T24, 4H982-AA; assay: two-hybrid library CCmax; conditions: mean of both orientations
T24 chain: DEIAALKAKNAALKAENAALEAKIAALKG

4H3631-AA = biological target: T25, 4H3631-AA; assay: two-hybrid library CCmax; conditions: mean of both orientations
T25 chain: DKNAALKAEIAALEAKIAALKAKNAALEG

4H1629-AA = biological target: T26, 4H1629-AA; assay: two-hybrid library CCmax
T26 chain: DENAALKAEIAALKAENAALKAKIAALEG

4H340-AA = biological target: T27, 4H340-AA; assay: two-hybrid library CCmax; conditions: mean of both orientations
T27 chain: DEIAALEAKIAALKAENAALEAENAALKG

4H3697-AA = biological target: T28, 4H3697-AA; assay: two-hybrid library CCmax; conditions: mean of both orientations
T28 chain: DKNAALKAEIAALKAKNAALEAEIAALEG

4H2198-AA = biological target: T29, 4H2198-AA; assay: two-hybrid library CCmax; conditions: mean of both orientations
T29 chain: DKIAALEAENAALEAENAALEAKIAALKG

4H3588-AA = biological target: T30, 4H3588-AA; assay: two-hybrid library CCmax; conditions: mean of both orientations
T30 chain: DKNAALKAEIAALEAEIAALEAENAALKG

4H2611-AA = biological target: T31, 4H2611-AA; assay: two-hybrid library CCmax; conditions: mean of both orientations
T31 chain: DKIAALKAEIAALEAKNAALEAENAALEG

4H2620-AA = biological target: T32, 4H2620-AA; assay: two-hybrid library CCmax; conditions: mean of both orientations
T32 chain: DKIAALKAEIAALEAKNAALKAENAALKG

4H1845-AA = biological target: T33, 4H1845-AA; assay: two-hybrid library CCmax; conditions: mean of both orientations
T33 chain: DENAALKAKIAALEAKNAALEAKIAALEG

4H3606-AA = biological target: T34, 4H3606-AA; assay: two-hybrid library CCmax; conditions: mean of both orientations
T34 chain: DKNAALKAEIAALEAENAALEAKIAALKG

4H697-AA = biological target: T35, 4H697-AA; assay: two-hybrid library CCmax; conditions: mean of both orientations
T35 chain: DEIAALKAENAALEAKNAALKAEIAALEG

4H3162-AA = biological target: T36, 4H3162-AA; assay: two-hybrid library CCmax; conditions: mean of both orientations
T36 chain: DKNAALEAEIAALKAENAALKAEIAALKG

4H2907-AA = biological target: T37, 4H2907-AA; assay: two-hybrid library CCmax; conditions: mean of both orientations
T37 chain: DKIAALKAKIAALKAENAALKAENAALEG

4H32-AA = biological target: T38, 4H32-AA; assay: two-hybrid library CCmax; conditions: mean of both orientations
T38 chain: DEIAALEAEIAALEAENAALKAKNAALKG

4H570-bA = biological target: T39, 4H570-bA; assay: two-hybrid library CCNG1
T39 chain: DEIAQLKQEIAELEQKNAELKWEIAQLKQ

4H584-bA = biological target: T40, 4H584-bA; assay: two-hybrid library CCNG1
T40 chain: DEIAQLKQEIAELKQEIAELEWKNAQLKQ

4H906-bA = biological target: T41, 4H906-bA; assay: two-hybrid library CCNG1
T41 chain: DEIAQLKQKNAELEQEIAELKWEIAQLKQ

4H3631-bA = biological target: T42, 4H3631-bA; assay: two-hybrid library CCNG1
T42 chain: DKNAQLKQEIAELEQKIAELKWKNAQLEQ

4H3414-bA = biological target: T43, 4H3414-bA; assay: two-hybrid library CCNG1
T43 chain: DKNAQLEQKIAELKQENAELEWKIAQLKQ

4H3172-bA = biological target: T44, 4H3172-bA; assay: two-hybrid library CCNG1
T44 chain: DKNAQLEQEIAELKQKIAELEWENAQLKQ

4H3817-bA = biological target: T45, 4H3817-bA; assay: two-hybrid library CCNG1
T45 chain: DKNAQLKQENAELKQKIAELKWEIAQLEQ

4H3974-bA = biological target: T46, 4H3974-bA; assay: two-hybrid library CCNG1
T46 chain: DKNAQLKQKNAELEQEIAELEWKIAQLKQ

4H850-bA = biological target: T47, 4H850-bA; assay: two-hybrid library CCNG1
T47 chain: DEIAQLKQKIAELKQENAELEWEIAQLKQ

4H3638-bA = biological target: T48, 4H3638-bA; assay: two-hybrid library CCNG1
T48 chain: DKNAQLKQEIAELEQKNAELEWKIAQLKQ

4H619-bA = biological target: T49, 4H619-bA; assay: two-hybrid library CCNG1
T49 chain: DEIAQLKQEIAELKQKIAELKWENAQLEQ

interaction score (4H717-AA): -1.32
interaction score (4H797-AA): -1.79
interaction score (4H4001-AA): -1.19
interaction score (4H883-AA): -1.75
interaction score (4H918-AA): -0.824
interaction score (4H568-AA): -1.85
interaction score (4H953-AA): -1.79
interaction score (4H967-AA): -1.57
interaction score (4H687-AA): -2.04
Binder: DKNAALKAKNAALEAKIAALEAEIAALEG [4H4001-AA]

interaction score (P6bHq): 1.03
interaction score (P8bHq): 1
interaction score (P7bHq): 0.113
interaction score (P9bHq): -0.205
Binder: DKNQELKKEIEELERENWELEKKIQELKQ [P6bHq]

interaction score (4H2553-AA): -1.61
interaction score (4H3865-AA): -0.375
interaction score (4H2648-AA): -1.18
interaction score (4H3056-AA): -1.6
interaction score (4H3133-AA): -1
interaction score (4H3413-AA): -0.212
interaction score (4H384-AA): -1.82
interaction score (4H1874-AA): -0.00053
interaction score (4H3718-AA): -1.62
interaction score (4H3378-AA): -1.39
interaction score (4H982-AA): -1.55
interaction score (4H3631-AA): -1.7
interaction score (4H1629-AA): 2.04
interaction score (4H340-AA): -1.67
interaction score (4H3697-AA): -0.847
interaction score (4H2198-AA): -1.33
interaction score (4H3588-AA): -1.46
interaction score (4H2611-AA): -1.42
interaction score (4H2620-AA): -1.66
interaction score (4H1845-AA): -1.22
interaction score (4H3606-AA): 0.462
interaction score (4H697-AA): -1.58
interaction score (4H3162-AA): -0.752
interaction score (4H2907-AA): -1.89
interaction score (4H32-AA): -1.13
Binder: DENAALKAEIAALKAENAALKAKIAALEG [4H1629-AA]

interaction score (4H570-bA): -1.11
interaction score (4H584-bA): -0.867
interaction score (4H906-bA): -0.0855
interaction score (4H3631-bA): 0.247
interaction score (4H3414-bA): -0.273
interaction score (4H3172-bA): 1.36
interaction score (4H3817-bA): -0.291
interaction score (4H3974-bA): 0.174
interaction score (4H850-bA): -0.244
interaction score (4H3638-bA): -0.395
interaction score (4H619-bA): -0.797
Binder: DKNAQLEQEIAELKQKIAELEWENAQLKQ [4H3172-bA]
